Laboratory results from patent US20160280792A1 (Kyowa Kirin, published 2016).

Tests used:
[1] = biological target: T1, IL-3Rα/GM-CSFRα chimeric protein, A domain of IL-3Rα replaced by that of GM-CSFRα, on HEK293T cells (human, UniProt P15509 23-114); assay: flow cytometry, labelled antibody at 1 µg/ml, HEK293T cells expressing the construct
T1 construct: domain: A domain; The KpnI site (GGTACC) at the junction encodes an extra Gly-Thr; also called A domain substitution
T1 sequence: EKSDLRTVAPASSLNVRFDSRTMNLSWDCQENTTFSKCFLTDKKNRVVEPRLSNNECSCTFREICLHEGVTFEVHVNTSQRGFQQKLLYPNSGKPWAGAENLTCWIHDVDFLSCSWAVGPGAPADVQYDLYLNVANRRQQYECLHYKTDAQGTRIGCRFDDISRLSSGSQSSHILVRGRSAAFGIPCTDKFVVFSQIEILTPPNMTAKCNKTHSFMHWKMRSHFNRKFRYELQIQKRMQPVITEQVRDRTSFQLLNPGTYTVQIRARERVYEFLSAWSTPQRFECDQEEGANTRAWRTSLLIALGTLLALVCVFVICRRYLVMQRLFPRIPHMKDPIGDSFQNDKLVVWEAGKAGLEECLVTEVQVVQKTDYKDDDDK
Description: HEK293T cell (ATCC CRL 1268) was used for the preparation of the IL-3Rα/GM-CSFRα chimeric protein expression cell. Using 293Fectin (Invitrogen), the plasmid DNA obtained in the above was introduced as an expression vector into the HEK293T. The HEK293T to which the expression vector was introduced was cultured using a shaker under conditions of 5% CO₂ and 37° C. after 2 days of the introduction, the […] was used for in the flow cytometry analysis.
From 100,000 to 1,000,000 cells of the chimeric protein expression cell were allowed to react for 30 minutes on ice with at a concentration of 1 μg/ml with an AlexaFlour488-labeled human antibody or a commercially available FITC-labeled anti-IL-3Rα mouse antibody (7G3 or 9F5: both from BD Biosciences, 6H6: Acris Antibodies, AC145: Milteny Biotech, 107D2.08: Dendritics). A staining medium (Dulbecco's PBS supplemented with 2% fetal bovine serum, 2 mM EDTA and 0.05% NaN₃) was used for the dilution of antibodies and cells. Next, the cells reacted with antibodies were washed three times with the staining medium and whether the labeled antibody bound to the cell was confirmed by flow cytometry.

[2] = biological target: T2, IL-3Rα/GM-CSFRα chimeric protein, region 1 (55-DADYSMP-61) of IL-3Rα replaced by GM-CSFRα sequence, on … (human, UniProt P26951 19-378); assay: as above
T2 construct: Built on IL-3RA-FLAG/pEGFP-N1; they are my translation of the primers; also called Region 1 (A)
T2 chain: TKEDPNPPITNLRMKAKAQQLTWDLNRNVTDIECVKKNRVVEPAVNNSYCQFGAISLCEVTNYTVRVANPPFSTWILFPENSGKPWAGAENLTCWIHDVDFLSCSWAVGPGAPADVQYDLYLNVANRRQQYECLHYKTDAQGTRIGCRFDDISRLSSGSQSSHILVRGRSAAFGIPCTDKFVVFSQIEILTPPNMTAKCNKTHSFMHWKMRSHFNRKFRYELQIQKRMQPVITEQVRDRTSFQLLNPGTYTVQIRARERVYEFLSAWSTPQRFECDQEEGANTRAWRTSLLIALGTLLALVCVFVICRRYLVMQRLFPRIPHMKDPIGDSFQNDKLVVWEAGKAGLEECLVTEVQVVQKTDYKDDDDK

[3] = biological target: T3, soluble form of human IL-3Rα protein (extracellular region with C-terminal FLAG tag) (human, UniProt P26951 19-305); assay: SPR (Biacore 2000): antibody captured on anti-mouse antibody CM5 chip, soluble IL-3Rα as analyte, 1:1 Langmuir fit
T3 construct: Made in CHOras1 cells, purified on anti-FLAG gel; also called soluble form of IL-3Rα protein; soluble form of human IL-3Rα extracellular region
T3 sequence: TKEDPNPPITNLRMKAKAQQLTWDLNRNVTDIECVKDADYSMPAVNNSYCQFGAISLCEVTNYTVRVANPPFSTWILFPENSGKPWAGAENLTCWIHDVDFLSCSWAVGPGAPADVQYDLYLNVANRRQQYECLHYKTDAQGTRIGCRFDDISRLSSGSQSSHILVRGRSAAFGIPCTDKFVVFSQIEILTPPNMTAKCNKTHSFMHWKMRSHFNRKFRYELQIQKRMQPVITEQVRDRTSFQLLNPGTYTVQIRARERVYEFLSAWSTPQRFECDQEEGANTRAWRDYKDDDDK
Description: Specifically, CM5 (research grade) was used for a sensor tip (each GE). Firstly, the CM5 tip was activated by applying an equivalent mixture of 400 mM EDC (N-ethyl-N′-(3-dimethylaminopropyl)carbodiimidehydrochloride) and 100 mM NHS (N-hydroxysuccinimide) to the CM5 tip. Next, an antibody to the human antibody attached to the Human Antibody Capture Kit (GE) (hereinafter, referred to as anti-human antibody antibody) was diluted with the solution attached to the kit and applied thereto, thereby immobilizing the required amount of the anti-human antibody antibody to the CM5 tip. Regarding the mouse antibody to be used as a control, an antibody to the mouse antibody attached to the Mouse Antibody Capture Kit (GE) (hereinafter, referred to as anti-mouse antibody antibody) was diluted with the solution attached to the kit and applied thereto, thereby immobilizing a necessary amount thereof to the CM5 tip. […]
In the analysis, Biaevaluation software (GE) was used and Biaevaluation Software Handbook was referred. Specifically, by carrying out simultaneous analysis of kinetics analysis, employing basically the 1:1 Langmuir binding reaction model and fitting, association rate constant (Ka) and dissociation rate constant (Kd) were calculated, and the value of dissociation constant KD was calculated by the calculation of Kd/Ka.

B1: anti-human IL-3Rα mouse antibody 7G3 (antibody, V domains shown)
VH: EVQLQQSGPELVKPGASVKMSCKASGYTFTDYYMKWVKQSHGKSLEWIGDIIPSNGATFYNQKFKGKATLTVDRSSSTAYMHLNSLTSEDSAVYYCTRSHLLRASWFAYWGQGTLVTVSA
VL: DFVMTQSPSSLTVTAGEKVTMSCKSSQSLLNSGNQKNYLTWYLQKPGQPPKLLIYWASTRESGVPDRFTGSGSGTDFTLTISSVQAEDLAVYYCQNDYSYPYTFGGGTKLEIK
notes: Mouse antibody; the material used in flow cytometry was bought (BD Biosciences, FITC-labelled); Light chain start see note of m7; also called 7G3 (Mouse antibodies); FITC-labeled 7G3 (BD Biosciences)
binding result [1]: no binding (tested: 1 µg/ml) | binding result [2]: no binding (tested: 1 µg/ml) | Kd [3]: 566 pM
